Measured values from patent US5786195.

Tested on: T1, BssHII restriction endonuclease (bssHIIR) (Bacillus stearothermophilus H3)
T1 sequence: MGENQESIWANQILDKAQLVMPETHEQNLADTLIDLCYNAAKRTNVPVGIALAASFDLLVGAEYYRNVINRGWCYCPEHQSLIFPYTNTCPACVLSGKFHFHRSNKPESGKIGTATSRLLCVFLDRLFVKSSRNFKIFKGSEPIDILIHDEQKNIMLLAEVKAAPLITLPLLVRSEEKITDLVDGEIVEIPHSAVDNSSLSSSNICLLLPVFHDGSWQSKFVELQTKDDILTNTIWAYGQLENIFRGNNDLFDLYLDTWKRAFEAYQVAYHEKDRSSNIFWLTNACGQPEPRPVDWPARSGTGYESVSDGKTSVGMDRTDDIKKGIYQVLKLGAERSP
Assay: cleavage_in_vitro
Conditions: cell extract; activity seen after 10- and 100-fold dilution

Q: For lambda DNA (BssHII sites), which activity (units per g wet cells) is on record?
A: 100000
